This note sets out measurements from US20150023989A1, “NEW ANTIBODY DRUG CONJUGATES (ADCS) AND THE USE THEREOF” (SEATTLE GENETICS, INC., priority 2011, published 2015).

This test has as its target FGFR2 on the cell surface of human tumour cell lines (human), P21802. As to the kind of experiment: cell-based or functional assay.

B1: Example 17 (immunoconjugate of GAL-FR22-mIgG2a, coupled to lysine side chains) (antibody)
light: DIQMTQSPSSLSASLGGRVTITCKASQDIKNYIAWYQHKPGKSPRLLIHYTSTLQPGVPSRFSGSGSGRDYSFSISNLEPEDIATYYCLQYDDLYMFGGGTKLDIKRTDAAPTVSIFPPSSEQLTSGGASVVCFLNNFYPKDINVKWKIDGSERQNGVLNSWTDQDSKDSTYSMSSTLTLTKDEYERHNSYTCEATHKTSTSPIVKSFNRNEC
heavy: QVQLKQSGPGLVQPSQSLSITCTVSGFSLTSFGVHWVRQSPGKGLEWLGVIWSGGSTDYNADFRSRLSISKDNSKSQIFFKMNSLQPDDTAIYYCANFYYGYDDYVMDYWGQGTSVTVSSAKTTAPSVYPLAPVCGDTTGSSVTLGCLVKGYFPEPVTLTWNSGSLSSGVHTFPAVLQSDLYTLSSSVTVTSSTWPSQSITCNVAHPASSTKVDKKIEPRGPTIKPCPPCKCPAPNLLGGPSVFIFPPKIKDVLMISLSPIVTCVVVDVSEDDPDVQISWFVNNVEVHTAQTQTHREDYNSTLRVVSALPIQHQDWMSGKEFKCKVNNKDLPAPIERTISKPKGSVRAPQVYVLPPPEEEMTKKQVTLTCMVTDFMPEDIYVEWTNNGKTELNYKNTEPVLDSDGSYFMYSKLRVEKKNWVERNSYSCSVVHEGLHNHHTTKSFSRTPGK
modifications: here or on the partner: auristatin linker-toxophore on side chain NH of lysine residues, positions not stated (drug/mAb ratio 8.1 for the antibody)
In turn, B1 gave an MFM-223, IC50, 72 hr (growth inhibition) of 0.278 nM and an SNU-16, IC50, 72 hr (growth inhibition) of 0.0616 nM.

B2: Example 16 (immunoconjugate of GAL-FR21-mIgG1, coupled to lysine side chains) (antibody)
light: NIVMTQSPKSMSMSVGDRVSITCKASQGVSNDVAWYQKKPGQSPKLLIYSASYRYTGVPDRFTGSGSGTDFTFTISNVQAEDLAVYYCQQHSTTPYTFGGGTKLEIKRTDAAPTVSIFPPSSEQLTSGGASVVCFLNNFYPKDINVKWKIDGSERQNGVLNSWTDQDSKDSTYSMSSTLTLTKDEYERHNSYTCEATHKTSTSPIVKSFNRNEC
heavy: QVQLQQPGAEVVKPGASVKMSCKASGYIFTTYNVHWVKQTPGQGLEWIGSIYPDNGDTSYNQNFKGKATLTADKSSSTAYIQLSSLTSEDSAVYYCARGDFAYWGQGTLVTVSSAKTTPPSVYPLAPGSAAQTNSMVTLGCLVKGYFPEPVTVTWNSGSLSSGVHTFPAVLQSDLYTLSSSVTVPSSTWPSETVTCNVAHPASSTKVDKKIVPRDCGCKPCICTVPEVSSVFIFPPKPKDVLTITLTPKVTCVVVDISKDDPEVQFSWFVDDVEVHTAQTQPREEQFNSTFRSVSELPIMHQDWLNGKEFKCRVNSAAFPAPIEKTISKTKGRPKAPQVYTIPPPKEQMAKDKVSLTCMITDFFPEDITVEWQWNGQPAENYKNTQPIMDTDGSYFVYSKLNVQKSNWEAGNTFTCSVLHEGLHNHHTEKSLSHSPGK
modifications: here or on the partner: auristatin linker-toxophore on side chain NH of lysine residues, positions not stated (drug/mAb ratio 8.7 for the antibody)
In turn, B2 gave an MFM-223, IC50, 72 hr (growth inhibition) of 0.0788 nM and an SNU-16, IC50, 72 hr (growth inhibition) of less than 0.03 nM.
